The text below walks through data of the domain aggregation screens of Martell et al. (2025).

Some results are limits rather than exact numbers.

The data set in a line: soluble fraction after stress (log2 fold change); higher = more stays soluble; pooled small domains, quantitative proteomics. The conditions noted are these: stress: pH 4. Summed up: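 Aggregation propensity is estimated from the fold change in each domain's soluble amount after acid stress. Pooled small-domain libraries were stressed at pH 4, and higher log2 values mean more stayed soluble.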
Regarding “HMVINKRELNVLSIYSRGSEKRAIILFPTGQTKLVKVGDTLNGGRVAAIGTTEIRYIKGGNNLVLKIPQ”, the “soluble fraction (log2)” value is at least 0.43.
Regarding “HMVINVNEIIRRIKELKTFKTDRQVADFLGVSKATVSNWMARNSIDFPLLINKLDGVDLTWLLTGRGTPE”, the “soluble fraction (log2)” value is -0.121.
For “HMVIPATPTARRAKIAGLLADRSVRSQGELLTLLADAGIEVTQATLSRDLEALGAVKVRDGRGLVYAVPG”, the “soluble fraction (log2)” value came out at 0.365.
As to “HMVIQRQIPPLVTRMLDGLEQFIQLDMPFDLDTRLGNIEAVRANMDRSDVTSAEAYRQVLELYSIELQ”, the “soluble fraction (log2)” value was -0.0525.
To “HMVISLREINLIGVYGRPNARRALVRLSNGRYVRVEVGSDLDGGKVTAIGDEALNFVKRGRTYAIQLPA” belongs -0.324.
To “HMVITPESVKEQVLAIISKSPAQGFNYKQISKRLNINDPSERKMVSDILRELSESGTIEEINKGKYRAKV” belongs -0.055.
The same measure for “HMVKDYIQVTVNKEPVILKGKKDYIFIDIFNYIEFDLTIPKGSLYLLLNGKNAGYHDKLLDGDVIELGW”: -1.63.
As for “HMVKLDDLTGQDKASAEAAISNLGLKYSEQQEYSDEIEEGKVTRTDPGAGSTSLKAGDTVTVYISRGPE”, the “soluble fraction (log2)” value was -0.348.
On to “HMVKLSATVKELLDFVIAKKTVTSSNVSKHFDISAQNASGRLKKLHATGLVLGQKEVAESGGLEFVYRS”, for which the “soluble fraction (log2)” value is -0.208.
For “HMVKLSDGIVEHIKSLIMAGRLKPGDKLPPEREFAATLGVSRTALREAVRTLSLMGLLDARQGEGTFVSG”, the “soluble fraction (log2)” value turned out to be 0.313.
With “HMVKPQANTIYKEYIKYRANLQNKNEFLSFSEYAKQKHNLEQMSEIMVDANLKEEMLETLKEMS”, the “soluble fraction (log2)” value was 0.0548.
To “HMVKSDLVGHRFILVEDVTPKLTPKYHYSGINWKLITTDNLVAGTRVEVIQVDVGKFHIKAIK” belongs -0.82; to “HMVKSIDEIYNEAVKSLANEDYDAAKKLFNYLINNFSDPDKFPLSLFWLAEIEFSSSNFDASKNYYMQ”, -0.225; to “HMVKSSVTEVISMINALPVTVKPEDKADIISARMAYDTLTEDEKALVTNYEILTAAETRFNELIATT”, -0.101.
As for “HMVKTIINGEEKDFDAQDFQTFGDFLKKVIPEGQILKSLKINSKDVPIAFIDELKSATVDENITIEMELA”, the “soluble fraction (log2)” value turned out to be 0.315.
The same measure for “HMVLAEPLSERELDILRLLAAGDSNKEIAAVLYITEGTVKNHVTNILGKLDARDRTQAALRARELGL”: -0.373; for “HMVLGDQTFQSASAPKVFFGGDAAYGPKNIITAVAHGHDAAVSIDRFLHGEDVSKRPGPQVNLVS”: 0.207; for “HMVLRPDDVEDSLWREWVSHRKAKRAAVTEGVLKTFRQEATKASFTLADAMRKSIDRGWTGFEAEWVARET”: -0.325.
Turning to “HMVLSPAQVRRALMVSGLFTEARVARQLGVPMDLKQILRIILRNTPPQSAMARELESAIDEIESRNAMRD”, the “soluble fraction (log2)” value is -0.844.
With “HMVLSTRERMSNILATLKGGHFVNFSDLFTPEEGRLGVVVTFLAMLELIKESLLDIVQHEVLGPIHVKARV”, the “soluble fraction (log2)” value was determined as 0.0323.
The same measure for “HMVLTGTIKKYNNERGFGFISTSNFGDVFFHIKDFQKGEQPIPGREVYFEVVKKENKKRAIHVYYSD”: -0.243; for “HMVLVSNYGEVVRKARERKGLDHGSLAMKISEKKSIITSVESGNMKPNEKLIKKLENFLNINLM”: -0.471.
Regarding “HMVMIPDLVGETIEDAKDILEGLGFEVEVRSEFPESDWGRPFARVTSLSPSAGQEVAKGTLVIIRSF”, the “soluble fraction (log2)” value was -0.144.
In the case of “HMVMLIVMNHTASQADIDKVIEVVSGMGFTAAPIPGGERTAIGVLGNKGYVDDSTIRDLPGVQQAIHVSKP”, the “soluble fraction (log2)” value was -0.301.
In the case of “HMVMSVGENIAYFRKKLGLTQEMLSERIGVTAQAVSKWENGVTNPDISLLPRISEALGIGIGDLFD”, the “soluble fraction (log2)” value was -0.218.
On to “HMVNAVKFAIEKMPYKYSSLLTLKYVMGYSGKEIAEITGLSETNVRQQLLKGRKLLESMLEE”, for which the “soluble fraction (log2)” value is -0.105.
On to “HMVNGTPADPYDVLGVESSASPEELRAAWQTLVRQNHPDQLMARGVPLEAVKLAEARLVAINQAWDDLTK”, for which the “soluble fraction (log2)” value was -1.33.
On to “HMVNHVGITVSNLERSIQFYEALTGKKIANQDTIGGKRMAQTQGLADTLIKYANLHLDNLNIDLLEYVE”, for which the “soluble fraction (log2)” value is -0.448.
As to “HMVNIAVMTVSDTRTEADDKSGSLLVSKIEGDGHVLADRAIITDDVPRIIAKLKEWIESPQVDVVVT”, the “soluble fraction (log2)” value is -0.606.
As for “HMVNINEVEVSRDLAHAKVFVTFVGDRTDEINTQALKVLNAAQGFLRSRIASNNHMRTTPRIHF”, the “soluble fraction (log2)” value is -0.214.
For the sequence “HMVNIPEIAKKFGKSTSEVFEQIQIGEKHEMEHTNDPKKARKIALDHLSDDMDYYKKLKKLG”, the “soluble fraction (log2)” value is at least 0.43.
Regarding “HMVNLKQVELREHHPWVGHKIKELDISRHTLIVMIRRGDNAIVPNGDTLIKSGDIVFVFSKR”, the “soluble fraction (log2)” value was -0.839.
Take “HMVNPHPVYRSWGLLYVEARDGDSLESIAKEFGFSVKKLAKYNEVPKDYPLEAGDIVYLEKKKK”: the “soluble fraction (log2)” value was found to be 0.019.
To “HMVNPIDFYLLFRTELQRLAEHPITVDRLTEVTGLNKLQVLDWLKRAEQDGLVKKLNRPTRYQLN” belongs -0.536.
The same measure for “HMVPAMGSLTLIKGGVNLRNAPGGLTIAQLDRGLVLSYTKFVQKDGYTWYLVNSPKGTGYVRSDVVQLGS”: -0.3.
The same measure for “HMVPDGFDQLTEREYQVAMAVGKGLNNKEIASQLGLGERTVKAHLTTTFEKLHVRDRVQLALIVNRL”: -0.404; for “HMVPDVVGKDYALAQAELEGANLVVAKGSSRYDDTLPAGVVLATDPKVGTVVKPGAKVTVILSK”: 0.268; for “HMVPLSMLTEGQIFRGQVLDITSQGIKIQLNPEQILFARLGEQVELNIGQQMAFQVRENKGDQLIIHPMQN”: -1.18.
For “HMVPVQLTPRELQVARLAAHGASSPEIAAELRVSRRTVDNQLGRVYAKLGIAGRAELAAALSRLPVSV”, the “soluble fraction (log2)” value is at least 0.43.
The same measure for “HMVPVSIYAYNKIKTAILNNELMPGEKLVEASLAETLNMSRTPIREALRQLEQEGFVTYYPQKGSIVSH”: -0.91; for “HMVQAQGARIREARVQRGLSQAQLGEPRYSGSYISHIENGRRSPGTDVLAFIAARLGLEPGALDS”: -0.164; for “HMVQIFIPVVHDDHWFLIVFSREEDTFYVLDSLPSLSRISTINGIISTLKEHLQQASVGPQYSVKVLPVK”: 0.144.
To “HMVQLAEGERYRRIQEANDFINRQQWPGKAAMGRLKDTEKAQYNLWLDYLDALEAVDTSSAPKINWPVPPE” belongs -0.156; to “HMVQQAVNMAKPGKLFTGPSPTSKALRDLDAGAMLYPTGEKQGPFWKVQDELGNEGWVAMGLLQLA”, -0.0346.
To “HMVQVDNELTEFSVQSITRGIDALGEVTIRVTAPDGGVYTGRGADNDIIVSSTKAYLNALNRLLNDK” belongs -0.552.
Regarding “HMVQYVDFVKRMIEELPWWHRRMLELKYLDGLTYEEIADELQVPVGTVKGTLHRAKELFQEILKNN”, the “soluble fraction (log2)” value is -1.71.
For “HMVRDPYELLEVPREATPDEIKSAFRKLAARHHPDRNPDDPGAQERFKEINAAYQLLSDPQKRAMFDRFGA”, the “soluble fraction (log2)” value came to 0.331.
Consider “HMVRKIQAKLVLRLHAQGLSGRAIARSQGMSRRSVSDVLDAARAVGVGWDDVTGKTDGEVYALLFPGRG”, for which the “soluble fraction (log2)” value was found to be 0.0261.
To “HMVRKIRARLVLQLRAEGLSGRAIAGSQGMSRKSVTAVLDAADRAGIGWDEIAERSEGEVYALLFPGRG” belongs -1.18.
To “HMVRQKYKSNFITVGDKSLTIHDWAQRLNLSQYALRNRYKEFGKEWVEKAIKTILETGDNTHIYK” belongs 0.0662.
The same measure for “HMVRSLADQVYERLRRNIVSGDLAPNARIVELDIAAQMGTSQGPVREALQRLEREGLVQRRAHSATFVTD”: -0.324; for “HMVRVSELAIEPRLVVEETATGFVGAVVRYANGLIELEDRHGAVRTFPLGPGYLVDGRPVSLVKPT”: -0.35; for “HMVSEDELLARIALLPYPQAKILLEERLSHDPANAKVRQLYLELAKKSGDHTEVTRHNSLLY”: 0.0149.
Take “HMVSKIEAPLPGIILSVDVKEGDTVKAGDKLMVMEAMKMENAILAETNGVVKSIKVKIQDSVLQGDILAEI”: the “soluble fraction (log2)” value was -1.07.
As for “HMVSKSDVQRALEKVEPVLRKLGGSTVEKVRVMARQATLVFEMLKSWWKGEIDLPWKTVAAMTVTLLYL”, the “soluble fraction (log2)” value was -0.322.
For the sequence “HMVSLNKTEFIAVKKASASELRDKINSLGLDVLKDATISADARTNQIIATGPKYALEQIKMLVVGLDVSS”, the “soluble fraction (log2)” value came to 0.313.
For “HMVSLRQQVYDYLRSQMNQGELRPGSAINLGEMSSRFGISRTPLREALLQLETEGFVTIYPRKGIIVN”, the “soluble fraction (log2)” value was -0.243.
The same measure for “HMVSLTGEWRPSKDALDILITKGGINPNFIDDAVPEFILYWRDRGDVSNTWDSKFIQHVRRQWQFYTGI”: -1.66; for “HMVSMSFDDYVNDAKEYESEGDKDKAYNSYLEAYKLNKSSEEVLDYLIDNTEDVTLKLNYVYEYLDL”: -0.32; for “HMVSNFEAEFGRHFAIFFPGSEFTELKLRLLEEGAELIDPIRDTPFERFFFKDPNGYIFEVIDKE”: -2.33.
The same measure for “HMVSNRMVYSDFQQKWINNQVESINVNADKMTIEVTTQDEKKYTVYAPSSMIEFLNEQYPKDDIKIEYVAP”: -0.94.
For the sequence “HMVSPLEKSQSFGSFEISREFARTLGLTSARNWENWAASDSRPINIPYSPNVFYKNKGWIDWSDWLGTE”, the “soluble fraction (log2)” value was -0.124.
To “HMVSRQINVIPDDLAGLRLDQALAHLFPQHSRSRLKEWLLEDIIIVQGGPKRPKDIVSGGEIVEIKL” belongs -1.2; to “HMVSYTLPTLHTGKNWYVDFTAYDPAEQKMKRKKYMLDGISKITERRKRAVDIIATVTARLRSGWNPWA”, 0.0419.
For “HMVTARMPDLFGLDEATAQRMVSNAGLTLKTEYAYSDQAEGYVFDQTPEANAEVRRGGTVTAMIS”, the “soluble fraction (log2)” value was -0.375.
The same measure for “HMVTEIDYGAFIKMTEEGNIGEVKIEDNQIVFTDKENKAIYKTGIMPDSDLTQRLYDSGAVFA”: -1.27.
The same measure for “HMVTEKPLYRDELMDHDTVWVEPISMDSHLRMELRGWYHVKNRFVENEVGQRFYFDFYDIKWLAFTNGP”: at least 0.43; for “HMVTINTASLEKAIADAKAVVKESYTTDSYNAMKAVLDEAEDLLKEEAQDQDTIDAKTEALNAAIEALVKR”: -0.337.
